Data: article PMC6602413

Key:
[1] = biological target: T1, Strep-RapZ (Escherichia coli (K-12?)) (UniProt P0A894); assay: EMSA; conditions: 10 mM Tris-HCl pH 7.0, 100 mM KCl, 10 mM MgCl2, 1 ug yeast tRNA per 10 ul, 30 min at 30 C (competition 15 + 15 min); native 6% PAGE at 4 C
T1 sequence: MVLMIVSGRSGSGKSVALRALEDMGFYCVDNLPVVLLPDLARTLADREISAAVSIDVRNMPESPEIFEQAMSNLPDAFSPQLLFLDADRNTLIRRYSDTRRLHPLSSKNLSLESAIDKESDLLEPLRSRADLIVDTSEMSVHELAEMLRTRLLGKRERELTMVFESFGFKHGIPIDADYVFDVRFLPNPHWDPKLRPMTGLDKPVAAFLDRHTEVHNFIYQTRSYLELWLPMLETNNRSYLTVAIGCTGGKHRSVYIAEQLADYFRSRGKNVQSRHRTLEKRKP

[2] = biological target: T1, Strep-RapZ (Escherichia coli (K-12?)); assay: competition; conditions: 10 mM Tris-HCl pH 7.0, 100 mM KCl, 10 mM MgCl2, 1 ug yeast tRNA per 10 ul, 30 min at 30 C (competition 15 + 15 min); native 6% PAGE at 4 C

| Sequence | binding [1] | binding [2] |
| --- | --- | --- |
| GGGAGAGUAGAUGCUCAUUCCAUCUCUUAUGUUCGCCUUAGUGCCUCAUAAACUCCGGAAUGACGCAGAGCCGUUUACGGUGCUUAUCGUCCACUGACAGAUGUCGCUUAUGCCUCAUCAGACACCAUGGACACAACGUUGAGUGAAGCACCCACUUGUUGUCAUACAGACCUGUUUUAACGCCUGCUCCGUAAUAAGAGCAGGCGUUUUUUU [GlmZ full-length] | binds | binds |
| GGGAGAGUAGAUGCUCAUUCCAUCUCUUAUGUUCGCCUUAGUGCCUCAUAAACUCCGGAAUGACGCAGAGCCGUUUACGGUGCUUAUCGUCCACUGACAGAUGUCGCUUAUGCCUCAUCAGACACCAUGGACACAACGUUGAGUGAAGCACCCACUUGUUG [GlmZ* (processed GlmZ)] | binds | binds |
